Assay results published in publication PMC5655499, “Peptide array-based screening reveals a large number of proteins interacting with the ankyrin-repeat domain of the zDHHC17 S-acyltransferase” (The Journal of Biological Chemistry, 2017).
One block for each binder: values may come before it.

Biological target: T1, His6-tagged AR domain (residues 51–288) of zDHHC17 (human, UniProt Q8IUH5 51-288)
T1 construct: ankyrin-repeat (AR) domain of human zDHHC17 (HIP14), residues 51-288; pET303CT-His plasmid; also called ARzD17-His; ARzD17; source: E. coli BL21(DE3)pLysS, purified; not shown: His6 (after a Leu-Glu linker), C-terminal, kept
T1 sequence (looked up): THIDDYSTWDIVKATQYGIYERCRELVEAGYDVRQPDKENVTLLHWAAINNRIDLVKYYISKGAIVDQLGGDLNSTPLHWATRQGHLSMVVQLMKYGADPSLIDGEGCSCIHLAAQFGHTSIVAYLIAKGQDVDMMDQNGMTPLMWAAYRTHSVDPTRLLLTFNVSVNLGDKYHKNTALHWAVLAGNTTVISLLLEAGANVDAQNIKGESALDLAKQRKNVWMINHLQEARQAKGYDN
Assay: peptide or protein array; far-Western on an array of 109 SPOT-synthesised 12-mer peptides on cellulose membrane; ARzD17-His (51–288) 500 nM in PBS-T overnight at 4 °C; detected with His6 tag antibody; signals normalised to the highest (1000), values <10 non-binders
Conditions: both partners purified

- binding result: binds
B1: SLAIN1 (Pro-541) zDABM 12-mer peptide (peptide, UniProt Q8ND83 534-545, looked up)
peptide: PRSKIAQPVRSF
notes: also called SLAI1; SLAIN motif-containing protein 1; source: synthetic peptide, SPOT synthesis on cellulose membrane

- binding result: binds
B2: PDE4D (Pro-46) zDABM 12-mer peptide (peptide, UniProt Q08499 39-50, looked up)
peptide: HQYPLRQPQFRL
notes: 12-mer of human PDE4D with Pro-46 at position 7 and YP at positions 2-3; source: synthetic peptide, SPOT synthesis on cellulose membrane
